According to US8620595B2, “Methods for determining the retention of peptides in reverse phase chromatography using linear solvent strength theory” (University of Manitoba, priority 2010, dated 2013):
Values joined by “and” are separate entries in the source; they are usually repeats but may differ in a detail not shown here. Equal entries are not always repeated.

Test: Isocratic elution measurement of slope S (log k vs. φ plots), RP-HPLC with UV detection
Type: physicochemical
Settings: Luna C18(2) column, water/acetonitrile with 0.1% formic acid, 22-23° C.
Description: (§1) Chromatography. All chromatographic experiments were conducted at a controlled temperature of 22-23° C. For isocratic measurement of the slope values, a micro-Agilent 1100 Series system (Agilent Technologies, Wilmington, Del.), was used with a 1 mm×100 mm 5 μm Luna C18(2) (Phenomenex, Torrance, Calif.) column and a UV detector operated at 214 nm. Both eluents A (water) and B (acetonitrile) contained 0.1% formic acid as ion-pairing modifier. Stock solutions of the 11 standard peptides (˜1 mg/ml) were prepared by dissolving each peptide in 1 ml of 0.1% FA in water or a 20% acetonitrile solution. Ten microliters of sample was injected. Individual peptides were diluted to provide ˜0.5-1 μg injection of each component using a 10 μl loop. The dead volume of the column and connecting tubings was determined by injecting a non-retained compound (water) and measuring the elution time of the negative peak at a 150 μL/min flow rate. Retention factors for isocratic elution were calculated using the formula: k=(tR−t0)/t0c; where tR is the retention time, t0 is the system (column and tubings) dead time, and t0c is the column dead time. Additional details of measuring S-values via constructing log k vs. φ plots are provided elsewhere.^24 The nano-LC MS/MS experiments were conducted using splitless Tempo LC system (Eksigent, Dublin, Calif.) with 20 μL sample injection via a 300 μm×5 mm PepMap100 (Dionex, Sunnyvale, Calif.) trap-column and a 100 μm×200 mm analytical column packed with 5 μm Luna C18(2) (Phenomenex, Torrance, Calif.). Tryptic digests of the mixtures were spiked with calibrating peptides (see Table 1) as described above, injected on the trap-column using buffer A as a carrier and separated using 0.1875, 0.375 and 0.75 percent acetonitrile per minute linear gradients starting from 0.5% acetonitrile at 500 nL/min flow rate. The composition of both eluents A and B was identical to one described above for normal-flow system. Gradient programs consisted of a 0.5-40% linear increase of buffer B in 213.2, 106.6 and 53.3 minutes, respectively. After each run the gradient columns were washed with 80% B for 3 minutes and equilibrated with the starting A:B ratio for 18 minutes.
Accordingly, for the determination of S-values of the set of synthetic peptides we used an isocratic elution procedure, despite it being extremely labor intense.^23 Isocratic measurements consist of determining retention times of peptides at several constant acetonitrile concentrations and plotting experimental Eqn. 1 for each peptide.
These two ways of measurement have been combined to provide a highly accurate and fast way of determining S for an extensive sets of peptides (see FIG. 3). First, precise isocratic measurement of S is performed in normal flow conditions with UV detection for a set of synthetic “S-calibrating” peptides. Similar to the previously described peptide mixture P1-P6 designed to cover wide range of hydrophobicities, these peptides were chosen to cover wide range of S-values (Table 1). Second—a tryptic digest of the bovine proteins mixture (model mixture) is spiked with the “S-calibrating” peptides and run under two different gradient slopes in nano-flow RP-HPLC MS: 0.75 and 0.1875% acetonitrile per minute in our case. Third—retention times are assigned for all identified species. Fourth—retention time shifts in acetonitrile percentage (ACN %) units relative to P3 were determined as: Δ=(tR 0.75−tRP3 0.75)*0.75−(tR 0.1875−tRP3 0.1875)*0.1875 (3); where tR 0.75 and tRP3 0.75 are the retention times of any peptide and reference P3 at 0.75% per minute, and tR 0.1875 and tRP3 0.1875 are the retention times of any peptide and reference P3 at 0.1875% acetonitrile per minute gradient, respectively. Fifth—an experimental Δ vs. S curve was plotted for S-calibrating peptides (FIG. 3). Sixth—S values were extracted from this dependence for all peptides observed in both nano-RP-HPLC MS runs by extrapolation of experimental Δ on this plot.

Row | Substance | Slope (S in the basic LSS equation)
1 | LLGGSLSSLHAAFR [Peptide 10, synthetic S-calibrating peptide] | 33.81
2 | LLSLADFG [Peptide 8, synthetic S-calibrating peptide] | 19.2

Test: Determination of S from retention time shift Δ relative to P3 at two gradient slopes, nano-RP-HPLC MS of spiked tryptic digest
Type: physicochemical
Settings: experimental S value, LC-MS runs of model peptide mixture
Description: Proteins and protein digestion. Tryptic digests of two different protein mixtures were utilized. The “test peptide mixture” contained human proteins: albumin, transferrin, fibrinogen. The “model peptide mixture” contained bovine proteins: albumin, transferrin, fibrinogen, catalase. Equimolar mixtures of the proteins were prepared, reduced with DTT, alkylated with iodoacetamide and digested with sequencing-grade modified trypsin (Promega, Madison, Wis.). Prior to nano-LC MS/MS analysis, mixtures were diluted with buffer A (0.1% formic acid in water) and spiked with the 6 standard peptides P1-P6^24 for test mixture and the set of 11 model peptides (described elsewhere^23) for a model mixture. All dilutions were performed to provide an injection of ˜100 fmole of each component into the nanoRP-HPLC MS system.
as §1
Mass spectrometry. A QStar Elite mass spectrometer (Applied Biosystems, Foster City, Calif.) equipped with a MicrolonSpray II source was used in standard MS/MS information dependent acquisition (IDA) mode for LC-ESI analyses. Protein identification was performed using Protein Pilot 3.0 (Applied Biosystems, Foster City, Calif.) with a restricted database containing target protein sequences and the sequences of standard peptides. Retention times of identified species (peak maxima) were assigned manually.
These two ways of measurement have been combined to provide a highly accurate and fast way of determining S for an extensive sets of peptides (see FIG. 3). First, precise isocratic measurement of S is performed in normal flow conditions with UV detection for a set of synthetic “S-calibrating” peptides. […]

Row | Substance | Slope (experimental)
3 | FCLFK [tryptic peptide detected in the model peptide mixture] | 21.68
4 | LQDTLVR | 29.045
5 | IQLEDWNGR | 27.849
6 | VFEHIGKR | 41.112
7 | LYKELPDPQESIQR | 39.098
8 | VLDALDSIK | 26.128
9 | RWQWR | 27.269
10 | LLHLAHFR | 33.837
11 | NIVELMR | 24.282
12 | LRDSLFNYQK | 31.66
13 | LLSLAHFR | 29.303
14 | IQALLDKYNEEKPK | 40.311
15 | LLIEMEDWKGDK | 30.791
16 | LLSLADFR | 25.239
17 | WYSMK | 25.257
18 | LGPNYLQIPVNCPYR | 32.953
19 | LAGSASADAFR | 32.092
20 | TPIAVR | 33.313
21 | LESDVSTQMEYCR | 35.968
22 | KTYDSYLGDDYVR | 35.968
23 | AIQISYNPDQPSKPNNIESATK | 42.444

Row | Substance | Slope (experimental)
24 | LLEACTFHKP | 36.237
25 | EPYFGYSGAFK | 28.713
26 | YETLISTHESTIR | 36.09
27 | KDMDKVETFLR | 34.768
28 | NLRETAEEVK | 40.778
29 | AFALECIR | 26.057
30 | LLLLDFR | 23.297
31 | LLIEMEDWK | 26.865
32 | LNSLTVGPR | 30.791
33 | LGEYGFQNALIVR | 29.764
34 | WYSMKK | 33.268
35 | KEEAPSLRPVPPPISGGGYR | 42.646
36 | YYGYTGAFR | 29.343
37 | WCTISQPEWFK | 30.438
38 | LRPVAAEIYGTK | 34.815
39 | VIEQVQR | 38.258
40 | IETMR | 37.108
41 | WDPYK | 26.36
42 | LLHLLHFR | 31.51
43 | LLSLLHFR | 28.039
44 | KLGAPSITCVR | 37.615

Row | Substance | Slope (experimental)
45 | LDGSLDFK | 25.689
46 | LVTDLTK | 28.077
47 | QNCDQFEK | 36.657
48 | NTPEKGYLAVAVVK | 34.392
49 | RTPIAVR | 39.365
50 | RPCFSALTPDETYVPK | 38.129
51 | LLSLLDFR | 24.464
52 | LLVLAHFR | 28.115
53 | FNSANDDNVTQVR | 38.415
54 | VFEHIGK | 34.229
55 | KYAAELHLVHWNTK | 39.205
56 | NWIQYK | 26.629
57 | KPVTDAENCHLAR | 48.023
58 | VVQLEANCQEPCQDTVK | 39.579
59 | FPTIPLSR | 27.325
60 | TSDANINWNNLK | 30.109
61 | SQLQEAPLEWK | 28.576
62 | LAGSASAHAFR | 40.64
63 | CLMEGAGDVAFVK | 30.666
64 | DNPQTHYYAVAVVKK | 39.552

Same assay, conditions: experimental S, LC-MS runs of model peptide mixture, formic acid

Row | Substance | Slope (experimental)
65 | GNLDDFFHR | 26.957
66 | GAGAFGYFEVTHDITR | 33.608
67 | TGQIFK | 24.984
68 | DQLVDMK | 25.899
69 | DLEEGIQTLMGR | 26.684
70 | EDGSDPPSGDFLTEGGGVR | 30.812
71 | AAQKPDVLTTGGGNPVGDKLNSLTVGPR | 41.986
72 | DLGEEHFK | 32.597
73 | LLCLDGTR | 25.325
74 | VTALYEGFTVQNEANK | 30.77
75 | QSPVDIDTK | 31.703
76 | SVDGKEDLIWK | 30.068
77 | VHKECCHGDLLECADDRADLAK | 44.599
78 | GEGENQCACSSR [moderately sized, hydrophilic tryptic species of the model peptide mixture] | 54.005
79 | GRQNQVQDNENVVNEYSSHLEK | 42.444
80 | LAGGGSASSSADAAAFR | 35.894
81 | SFQLFGSPPGQR | 24.764
82 | HSTVFDNLPNPEDRK | 36.807
83 | DGPLTGTYR | 28.947
84 | KPPDADGCLHADPDLGVLCPTGCK | 40.448
85 | CACSNHEPYFGYSGAFK | 35.846
86 | GACLLPK | 25.811
87 | KFWGK | 27.604
88 | ARPATATVGQK | 51.675

Same assay, conditions: model peptide mixture (tryptic digest of bovine proteins), 0.75 and 0.1875% acetonitrile per minute gradients, formic acid, S from Δ vs. S curve of S-calibrating peptides

Row | Substance | experimental S-value
89 | FCLFK [tryptic peptide detected in the model peptide mixture] | 21.7
90 | KPVTEAQSCHLAVAPNHAWSR (KPVTEAQSCHLAVAPNHAVVSR) [tryptic peptide of the model peptide mixture, 5 positively charged groups] | 49.5
91 | GEGENQCACSSR [moderately sized, hydrophilic tryptic species of the model peptide mixture] | 54.1 and 51.7
